Laboratory results reported in patent US20250154278A1 (JANUX THERAPEUTICS, published 2025).

Experiments:
[1] = biological target: T1, Human TROP2 full length, on tumor cells (HCT116, MDAMB231, NCI-H292) (human, UniProt P09758 31-323); assay: cell-based or functional assay
T1 sequence: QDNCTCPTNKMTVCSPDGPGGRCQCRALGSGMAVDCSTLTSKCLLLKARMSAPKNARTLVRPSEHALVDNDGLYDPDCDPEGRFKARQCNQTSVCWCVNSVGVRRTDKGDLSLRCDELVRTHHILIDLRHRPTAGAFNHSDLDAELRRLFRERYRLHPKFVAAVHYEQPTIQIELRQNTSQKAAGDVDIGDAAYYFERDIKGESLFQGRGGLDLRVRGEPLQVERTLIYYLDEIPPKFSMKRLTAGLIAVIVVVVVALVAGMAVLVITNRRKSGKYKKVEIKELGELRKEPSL

[2] = biological target: T2, human CD3 epsilon, biotinylated (human, UniProt P07766 23-126, limits assumed, biotinylated (site not stated)); assay: BLI, CD3e-biotin on sensor (summary)
T2 construct: Printed in places as CD36, CD38, CD3c or CD3&; also called CD3e-bio; human CD3e-biotin

[3] = biological target: T2, human CD3 epsilon, biotinylated; assay: BLI, CD3e-biotin on sensor, 50 nM TCE
Procedure: The wild-type (non-mutated) and alanine mutated TCEs were evaluated for their ability to bind CD36 or TROP2 via kinetic binding measurements using biolayer interferometry (BLI). […] The TCEs diluted in buffer were then associated onto the antigen loaded biosensors. Sensors were then transferred to buffer where the TCEs were then dissociated from the sensors. Association and dissociation rates were measured in real time using an Octet® instrument.

[4] = biological target: T1, Human TROP2 full length, on tumor cells …; assay: cell-based or functional assay; remark: listed apart in the source

T2 sequence (P07766 23-126 limits assumed): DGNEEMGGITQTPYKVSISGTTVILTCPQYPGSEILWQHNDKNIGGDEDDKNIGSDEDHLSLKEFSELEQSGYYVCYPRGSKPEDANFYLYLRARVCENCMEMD

B1: TCE-2 (TROP2 Fab x SP34.185 scFv, non-mutated, scFv on the Fab LC) (bispecific antibody)
light: not shown
heavy: QVQLQQSGSELKKPGASVKVSCKASGYTFTNYGMNWVKQAPGQGLKWMGWINTYTGEPTYTDDFKGRFAFSLDTSVSTAYLQISSLKADDTAVYFCARGGFGSSYWYFDVWGQGSLVTVSSASTKGPSVFPLAPSSKSTSGGTAALGCLVKDYFPEPVTVSWNSGALTSGVHTFPAVLQSSGLYSLSSVVTVPSSSLGTQTYICNVNHKPSNTKVDKKVEPKSC
TCE Cytotoxicity EC50, HCT116 + CD8+ T cells [1]: 0.0016 nM
TCE Cytotoxicity EC50, MDAMB231 + CD8+ T cells [1]: 0.0012 nM

B2: TCE-5 (TROP2 Fab HC D109A TCE, scFv on the Fab LC) (bispecific antibody)
light: not shown
heavy: QVQLQQSGSELKKPGASVKVSCKASGYTFTNYGMNWVKQAPGQGLKWMGWINTYTGEPTYTDDFKGRFAFSLDTSVSTAYLQISSLKADDTAVYFCARGGFGSSYWYFAVWGQGSLVTVSSASTKGPSVFPLAPSSKSTSGGTAALGCLVKDYFPEPVTVSWNSGALTSGVHTFPAVLQSSGLYSLSSVVTVPSSSLGTQTYICNVNHKPSNTKVDKKVEPKSC
TCE Cytotoxicity EC50, H292 + CD8+ T cells [1]: 0.0002 nM
TCE Cytotoxicity EC50, HCT116 + CD8+ T cells [1]: 0.0058 nM
TCE Cytotoxicity EC50, MDAMB231 + CD8+ T cells [1]: 0.0026 nM

B3: TCE-3 (TROP2 Fab HC R98A TCE, scFv on the Fab LC) (bispecific antibody)
light: not shown
heavy: QVQLQQSGSELKKPGASVKVSCKASGYTFTNYGMNWVKQAPGQGLKWMGWINTYTGEPTYTDDFKGRFAFSLDTSVSTAYLQISSLKADDTAVYFCAAGGFGSSYWYFDVWGQGSLVTVSSASTKGPSVFPLAPSSKSTSGGTAALGCLVKDYFPEPVTVSWNSGALTSGVHTFPAVLQSSGLYSLSSVVTVPSSSLGTQTYICNVNHKPSNTKVDKKVEPKSC
TCE Cytotoxicity EC50, H292 + CD8+ T cells [1]: 0.0004 nM
TCE Cytotoxicity EC50, HCT116 + CD8+ T cells [1]: 0.022 nM
TCE Cytotoxicity EC50, MDAMB231 + CD8+ T cells [1]: 0.0077 nM

B4: TCE-1 (TROP2 Fab x SP34.185 scFv, non-mutated, scFv on the Fab HC) (bispecific antibody)
light: DIQLTQSPSSLSASVGDRVSITCKASQDVSIAVAWYQQKPGKAPKLLIYSASYRYTGVPDRFSGSGSGTDFTLTISSLQPEDFAVYYCQQHYITPLTFGAGTKVEIKRTVAAPSVFIFPPSDEQLKSGTASVVCLLNNFYPREAKVQWKVDNALQSGNSQESVTEQDSKDSTYSLSSTLTLSKADYEKHKVYACEVTHQGLSSPVTKSFNRGEC
heavy: not shown
TCE Cytotoxicity EC50, H292 + CD8+ T cells [1]: 0.0013 nM
TCE Cytotoxicity EC50, HCT116 + CD8+ T cells [1]: 0.0286 nM
TCE Cytotoxicity EC50, MDAMB231 + CD8+ T cells [1]: 0.012 nM

B5: TCE-30 (anti-CD3 scFv N236A, anti-TROP2 wt) (bispecific antibody)
light: DIQLTQSPSSLSASVGDRVSITCKASQDVSIAVAWYQQKPGKAPKLLIYSASYRYTGVPDRFSGSGSGTDFTLTISSLQPEDFAVYYCQQHYITPLTFGAGTKVEIKRTVAAPSVFIFPPSDEQLKSGTASVVCLLNNFYPREAKVQWKVDNALQSGNSQESVTEQDSKDSTYSLSSTLTLSKADYEKHKVYACEVTHQGLSSPVTKSFNRGEC
heavy: not shown
CD3 Octet response [2]: 0.65
CD3 t1/2 [2]: 2.45 min
Response [3]: 0.65

B6: TCE-28 (anti-CD3 scFv Y234A, anti-TROP2 wt) (bispecific antibody)
light: DIQLTQSPSSLSASVGDRVSITCKASQDVSIAVAWYQQKPGKAPKLLIYSASYRYTGVPDRFSGSGSGTDFTLTISSLQPEDFAVYYCQQHYITPLTFGAGTKVEIKRTVAAPSVFIFPPSDEQLKSGTASVVCLLNNFYPREAKVQWKVDNALQSGNSQESVTEQDSKDSTYSLSSTLTLSKADYEKHKVYACEVTHQGLSSPVTKSFNRGEC
heavy: not shown
CD3 Octet response [2]: 0.67
CD3 t1/2 [2]: 1.66 min
Kd [2]: 11.1 nM
Kd [3]: 11.1 nM
Response [3]: 0.674

B7: TCE-33 (anti-CD3 scFv V239A, anti-TROP2 wt) (bispecific antibody)
light: DIQLTQSPSSLSASVGDRVSITCKASQDVSIAVAWYQQKPGKAPKLLIYSASYRYTGVPDRFSGSGSGTDFTLTISSLQPEDFAVYYCQQHYITPLTFGAGTKVEIKRTVAAPSVFIFPPSDEQLKSGTASVVCLLNNFYPREAKVQWKVDNALQSGNSQESVTEQDSKDSTYSLSSTLTLSKADYEKHKVYACEVTHQGLSSPVTKSFNRGEC
heavy: not shown
CD3 Octet response [2]: 0.74
CD3 t1/2 [2]: 4.26 min
Response [3]: 0.742

B8: TCE-31 (anti-CD3 scFv R237A, anti-TROP2 wt) (bispecific antibody)
light: DIQLTQSPSSLSASVGDRVSITCKASQDVSIAVAWYQQKPGKAPKLLIYSASYRYTGVPDRFSGSGSGTDFTLTISSLQPEDFAVYYCQQHYITPLTFGAGTKVEIKRTVAAPSVFIFPPSDEQLKSGTASVVCLLNNFYPREAKVQWKVDNALQSGNSQESVTEQDSKDSTYSLSSTLTLSKADYEKHKVYACEVTHQGLSSPVTKSFNRGEC
heavy: not shown
CD3 Octet response [2]: 0.73
CD3 t1/2 [2]: 2.67 min
Kd [2]: 6.51 nM
Kd [3]: 6.51 nM
Response [3]: 0.728

B9: TCE-27 (anti-CD3 scFv W233A, anti-TROP2 wt) (bispecific antibody)
light: DIQLTQSPSSLSASVGDRVSITCKASQDVSIAVAWYQQKPGKAPKLLIYSASYRYTGVPDRFSGSGSGTDFTLTISSLQPEDFAVYYCQQHYITPLTFGAGTKVEIKRTVAAPSVFIFPPSDEQLKSGTASVVCLLNNFYPREAKVQWKVDNALQSGNSQESVTEQDSKDSTYSLSSTLTLSKADYEKHKVYACEVTHQGLSSPVTKSFNRGEC
heavy: not shown
H292 Cytotox EC50 [4]: > 1 nM
CD3 t1/2 [2]: 6.45 min
Kd [2]: 12.3 nM
Kd [3]: 12.3 nM
Response [3]: 0.414

B10: TCE-26 (anti-CD3 scFv L232A, anti-TROP2 wt) (bispecific antibody)
light: DIQLTQSPSSLSASVGDRVSITCKASQDVSIAVAWYQQKPGKAPKLLIYSASYRYTGVPDRFSGSGSGTDFTLTISSLQPEDFAVYYCQQHYITPLTFGAGTKVEIKRTVAAPSVFIFPPSDEQLKSGTASVVCLLNNFYPREAKVQWKVDNALQSGNSQESVTEQDSKDSTYSLSSTLTLSKADYEKHKVYACEVTHQGLSSPVTKSFNRGEC
heavy: not shown
CD3 Octet response [2]: 0.66
CD3 t1/2 [2]: 2.64 min
Kd [2]: 8.39 nM
Kd [3]: 8.39 nM
Response [3]: 0.663

B11: TCE-6 (TROP2 Fab HC R98A TCE, scFv on the Fab HC) (bispecific antibody)
light: DIQLTQSPSSLSASVGDRVSITCKASQDVSIAVAWYQQKPGKAPKLLIYSASYRYTGVPDRFSGSGSGTDFTLTISSLQPEDFAVYYCQQHYITPLTFGAGTKVEIKRTVAAPSVFIFPPSDEQLKSGTASVVCLLNNFYPREAKVQWKVDNALQSGNSQESVTEQDSKDSTYSLSSTLTLSKADYEKHKVYACEVTHQGLSSPVTKSFNRGEC
heavy: not shown
TCE Cytotoxicity EC50, H292 + CD8+ T cells [1]: 0.0063 nM
TCE Cytotoxicity EC50, HCT116 + CD8+ T cells [1]: 0.143 nM
TCE Cytotoxicity EC50, MDAMB231 + CD8+ T cells [1]: 0.0772 nM

B12: TCE-29 (anti-CD3 scFv S235A, anti-TROP2 wt) (bispecific antibody)
light: DIQLTQSPSSLSASVGDRVSITCKASQDVSIAVAWYQQKPGKAPKLLIYSASYRYTGVPDRFSGSGSGTDFTLTISSLQPEDFAVYYCQQHYITPLTFGAGTKVEIKRTVAAPSVFIFPPSDEQLKSGTASVVCLLNNFYPREAKVQWKVDNALQSGNSQESVTEQDSKDSTYSLSSTLTLSKADYEKHKVYACEVTHQGLSSPVTKSFNRGEC
heavy: not shown
CD3 Octet response [2]: 0.68
CD3 t1/2 [2]: 3.64 min
Kd [2]: 3.41 nM
Kd [3]: 3.41 nM
Response [3]: 0.682

B13: TCE-22 (anti-CD3 scFv Y111A, anti-TROP2 wt) (bispecific antibody)
light: DIQLTQSPSSLSASVGDRVSITCKASQDVSIAVAWYQQKPGKAPKLLIYSASYRYTGVPDRFSGSGSGTDFTLTISSLQPEDFAVYYCQQHYITPLTFGAGTKVEIKRTVAAPSVFIFPPSDEQLKSGTASVVCLLNNFYPREAKVQWKVDNALQSGNSQESVTEQDSKDSTYSLSSTLTLSKADYEKHKVYACEVTHQGLSSPVTKSFNRGEC
heavy: not shown
Response [3]: -0.0009

B14: TCE-8 (TROP2 Fab HC D109A TCE, scFv on the Fab HC) (bispecific antibody)
light: DIQLTQSPSSLSASVGDRVSITCKASQDVSIAVAWYQQKPGKAPKLLIYSASYRYTGVPDRFSGSGSGTDFTLTISSLQPEDFAVYYCQQHYITPLTFGAGTKVEIKRTVAAPSVFIFPPSDEQLKSGTASVVCLLNNFYPREAKVQWKVDNALQSGNSQESVTEQDSKDSTYSLSSTLTLSKADYEKHKVYACEVTHQGLSSPVTKSFNRGEC
heavy: not shown
TCE Cytotoxicity EC50, H292 + CD8+ T cells [1]: 0.004 nM
TCE Cytotoxicity EC50, HCT116 + CD8+ T cells [1]: 0.083 nM
TCE Cytotoxicity EC50, MDAMB231 + CD8+ T cells [1]: 0.026 nM

B15: TCE-32 (anti-CD3 scFv W238A, anti-TROP2 wt) (bispecific antibody)
light: DIQLTQSPSSLSASVGDRVSITCKASQDVSIAVAWYQQKPGKAPKLLIYSASYRYTGVPDRFSGSGSGTDFTLTISSLQPEDFAVYYCQQHYITPLTFGAGTKVEIKRTVAAPSVFIFPPSDEQLKSGTASVVCLLNNFYPREAKVQWKVDNALQSGNSQESVTEQDSKDSTYSLSSTLTLSKADYEKHKVYACEVTHQGLSSPVTKSFNRGEC
heavy: not shown
H292 Cytotox EC50 [4]: > 1 nM
CD3 Octet response [2]: 0.07
Kd [2]: 31 nM
Kd [3]: 31 nM
Response [3]: 0.0683

B16: TCE-25 (anti-CD3 scFv V231A, anti-TROP2 wt) (bispecific antibody)
light: DIQLTQSPSSLSASVGDRVSITCKASQDVSIAVAWYQQKPGKAPKLLIYSASYRYTGVPDRFSGSGSGTDFTLTISSLQPEDFAVYYCQQHYITPLTFGAGTKVEIKRTVAAPSVFIFPPSDEQLKSGTASVVCLLNNFYPREAKVQWKVDNALQSGNSQESVTEQDSKDSTYSLSSTLTLSKADYEKHKVYACEVTHQGLSSPVTKSFNRGEC
heavy: not shown
CD3 t1/2 [2]: 2.96 min
Kd [2]: 6.26 nM
Kd [3]: 6.26 nM
